Measurements as given in patent US20110165652A1, “COMPOSITIONS, METHODS AND SYSTEMS FOR SINGLE MOLECULE SEQUENCING” (LIFE TECHNOLOGIES CORPORATION, priority 2008, published 2011).

Test system: dATP-1-ROX
Assay: Primer extension by various polymerases with dATP-1-ROX or natural dATP
Format: biochemical
Settings: dATP-1-ROX vs natural dATP, optimal temperature of each polymerase
Protocol: FIG. 6 depicts the results of experiments to assess the nucleotide incorporation efficiency of various DNA mutated and non-mutated polymerases (Sequenase; Thermo-Sequenase; wild-type Taq from Promega; HIV reverse transcriptase; and a mutant Taq polymerase comprising the mutation F647C) using both natural (unlabeled) dATP as well as the gamma-modified nucleotide dATP-1-Rox. Each reaction was conducted at the individual polymerase's optimal temperature with equimolar concentrations of enzymatically cleared gamma-labeled nucleotides and units of polymerase. […] Primer extension reactions were performed in the presence of the nucleotide dATP-1-ROX or natural dATP. The ‘Neg Control’ is a control lacking both polymerase and nucleotide. The extension products were size separated using denaturing gel electrophoresis, and visualized on a Bio-Rad fx Imager. Incorporation of the gamma-labeled nucleotide results in the production of a resolvable extension duplex that indicates incorporation of a single dATP. The non-extended primer is the lower band; extension products are more slowly migrating. […] FIG. 81 is a solid ribbon diagram generated in DS Viewer Pro of Taq DNA Polymerase.

B1: VTaq647C: engineered mutant Taq polymerase comprising the mutation F647C, SEQ. ID: 7 (protein, listed as Thermus aquaticus)
chain: ALEEAPWPPPEGAFVGFVLSRKEPMWADLLALAAARGGRVHRAPEPYKALRDLKEARGLLAKDLSVLALREGLGLPPGDDPMLLAYLLDPSNTTPEGVARRYGGEWTEEAGERAALSERLFANLWGRLEGEERLLWLYREVERPLSAVLAHMEATGVRLDVAYLRALSLEVAEEIARLEAEVFRLAGHPFNLNSRDQLERVLFDELGLPAIGKTEKTGKRSTSAAVLEALREAHPIVEKILQYRELTKLKSTYIDPLPDLIHPRTGRLHTRFNQTATATGRLSSSDPNLQNIPVRTPLGQRIRRAFIAEEGWLLVALDYSQIELRVLAHLSGDENLIRVFQEGRDIHTETASWMCGVPREAVDPLMRRAAKTINFGVLYGMSAHRLSQELAIPYEEAQAFIERYFQSFPKVRAWIEKTLEEGRRRGYVETLFGRRRYVPDLEARVKSVREAAERMAFNMPVQGTAADLMKLAMVKLFPRLEEMGARMLLQVHDELVLEAPKERAEAVARLAKEVMEGVYPLAVPLEVEVGIGEDWLSAKE
  incorporation of gamma-labeled nucleotide: significantly improved incorporation
